Test [1] deals with PD-L1 that is over expressed on CHO-K1 cells (Homo sapiens (Human)) (UniProt Q9NZQ7). In words: flow cytometry (FACS) on CHO-K1 cells over expressing PD-L1, geometric mean.
For test [2], the target named is TGF-β1. Kind of test: ELISA: TGF-β1 coated on the plate, HRP-conjugated 2nd antibody, OD450.
The target of test [3] is TGF-β3. In words: ELISA: TGF-β3 coated on the plate, HRP-conjugated 2nd antibody, OD450.
Test [4] concerns the target human PD-L1 (PD-L1 aAPC/CHO-K1 cells) (human) (UniProt Q9NZQ7).
Test [5] concerns the target TGF-β2. In words: ELISA: TGF-β2 coated on the plate, HRP-conjugated 2nd antibody, OD450.
Test [6] addresses TGF-β1. In words: ELISA: TGF-β1 coated on the plate, HRP-conjugated 2nd antibody, OD450. The source holds these as a separate data set.
For test [7], the target named is TGF-β2. In words: ELISA: TGF-β2 coated on the plate, HRP-conjugated 2nd antibody, OD450. This is another data set of the same source.
Sequence of TGF-β2 (P61812 303-414): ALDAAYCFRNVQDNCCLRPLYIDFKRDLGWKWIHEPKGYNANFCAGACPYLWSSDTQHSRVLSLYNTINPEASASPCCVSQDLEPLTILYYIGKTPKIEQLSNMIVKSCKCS
Test [8] concerns the target TGF-β3. Kind of test: ELISA: TGF-β3 coated on the plate, HRP-conjugated 2nd antibody, OD450. This is another data set of the same source.
In test [9] the target is TGF-β1. In words: SPR, TGFβ ligand amine-coupled to chip, fusion protein as analyte, 25 °C, HBS-EP.
Test [10] deals with TGF-β2. The test is described as above.
The target of test [11] is TGF-β3. The description is as above.
The target in test [12] is human PD-L1 (PD-L1 aAPC/CHO-K1 cells) (human) (UniProt Q9NZQ7). This is another data set of the same source.
Sequence of human PD-L1 (PD-L1 aAPC/CHO-K1 cells) (human) (Q9NZQ7 19-290): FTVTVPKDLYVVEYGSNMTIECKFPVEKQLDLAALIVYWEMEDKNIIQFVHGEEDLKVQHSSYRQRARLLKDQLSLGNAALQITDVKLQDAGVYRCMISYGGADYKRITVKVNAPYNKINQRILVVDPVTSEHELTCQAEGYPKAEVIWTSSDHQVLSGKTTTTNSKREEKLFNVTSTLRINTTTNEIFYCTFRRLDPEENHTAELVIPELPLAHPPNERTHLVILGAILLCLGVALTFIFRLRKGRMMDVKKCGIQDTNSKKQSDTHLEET

We go through two substances from patent publication US20230093512A1.

Where two headings read alike, the source gives them in different places.

Sequence of TGF-β1 (P01137 279-390): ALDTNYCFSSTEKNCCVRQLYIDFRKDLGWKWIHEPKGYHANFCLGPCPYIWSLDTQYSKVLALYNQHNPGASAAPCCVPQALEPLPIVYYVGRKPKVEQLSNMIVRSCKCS
Sequence of TGF-β3 (P10600 301-412): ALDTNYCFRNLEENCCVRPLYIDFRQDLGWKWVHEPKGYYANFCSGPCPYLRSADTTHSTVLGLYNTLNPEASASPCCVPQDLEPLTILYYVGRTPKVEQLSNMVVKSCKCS
Sequence of PD-L1 that is over expressed on CHO-K1 cells (Homo sapiens (Human)) (Q9NZQ7 19-290 limits assumed): as the sequence (Q9NZQ7 19-290) above

As to M7824, the EC50 in test [1] is 0.344 nM; with TGF-β1 [2], 0.255 µg/mL; with TGF-β3 [3], 0.307 µg/mL; in the test with TGF-β2 [5], 0.348 µg/mL; with TGF-β1 [6], 0.327 µg/mL; in the test with TGF-β2 [7], 0.432 µg/mL. The substance further displayed an EC50 in the test with TGF-β3 [8] of 0.278 µg/mL. Further, the EC50, luminescence (RLU) of PD-1 effector cells co-cultured with PD-L1 aAPC/CHO-K1 cells, PD-1/PD-L1 blockade bioassay in test [4] was 0.77 nM; in test [12], 0.852 nM. Further, the Kd in the test with TGF-β1 [9] came out at 0.943 nM; with TGF-β2 [10], 4.6 nM; with TGF-β3 [11], 1.02 nM. The koff with TGF-β1 [9] was determined as 0.000315 s⁻¹; in the test with TGF-β2 [10] it was 0.00132 s⁻¹; in the test with TGF-β3 [11], 0.00032 s⁻¹. For the same substance, the kon came to 334000 M⁻¹ s⁻¹ with TGF-β1 [9], 286000 M⁻¹ s⁻¹ with TGF-β2 [10] and 314000 M⁻¹ s⁻¹ in the test with TGF-β3 [11].
Tecentriq (antibody) registered an EC50, luminescence (RLU) of PD-1 effector cells co-cultured with PD-L1 aAPC/CHO-K1 cells, PD-1/PD-L1 blockade bioassay in test [12] of 0.398 nM.
